According to patent US20220402981A1 (Dana-Farber, published 2022):

Experiments:
DCAF15split = target: T1, DCAF15split (human, UniProt Q66K64 30-264; Q66K64 383-600); assay: crystal structure with E7820
T1 construct: range 30-264;range 383-600; DCAF15 as two fragments in the crystal structures (PDB 6Q0R, 6Q0V, 6Q0W); also called Strep II Avi-DCAF15NTD (residues 30-264)-Strep II Avi-DCAF15CTD (residues 383-600); DCAF15-NTD; not shown: N-terminal Strep II Avi tag

full-length human DCAF15 = target: T2, full-length human DCAF15 (human, UniProt Q66K64 1-600); assay: cryo-EM at ~4.4 Å with E7820
T2 construct: mature; As in the cryo-EM and cross-linking complexes; also called full-length DCAF15

B1: His6-RBM39RRM2 (other)
chain: GSAGPMRLYVGSLHFNITEDMLRGIFEPFGRIESIQLMMDSETGRSKGYGFITFSDSECAKKALEQLNGFELAGRPMKVGHVTERTDA
notes: RBM39RRM2 as in the crystals, cryo-EM and cross-linking complexes; not shown: N-terminal His6 tag
- binding result (DCAF15split): binds
- binding result (full-length human DCAF15): binds
